Source: patent US20160194391A1 (AstraZeneca / MedImmune, published 2016)
Where two headings read alike, the source gives them in different places.

B1: 8C8 rabbit scFv (scFv, V domains shown)
VH: QSVEESGGRLVAPGGSLTLTCKASGFSLSSSGVSWVRQAPGKGLEWIGYVSIADTISYANWAKGRFTISKTSSTTVDLEMTSLTTEDTATYFCVRGFITYSGVLWGPGTLVTVSS
VL: QVLTQTPASVSAAVGGTVTISCQSSQNVYSNAFLSWYQQKPGQPPKLLIYKASKLASGVPSRFSGSGSGTQFTLTISGVQCDDAATYYCAGEYEGGIGTFGGGTEVVVVR
B2: 9C8 humanized scFv (9C8 Hum scFv v3-1) (scFv)
scFv: DIQMTQSPSSVSASVGDRVTITCQASQSISNELSWYQQKPGKAPKLLIYRTSTLASGVPSRFSGSGSGTDFTLTISSLQPEDFATYYCQQGYNSNDVDNVFGGGTKVEIKGGGGSGGGGSGGGGSGGGGSEVQLVESGGGLVQPGGSLRLSCTVSGIDLSSYDMSWVRQAPGKGLEWVGYIYTDSSTYYANWAKGRFTISRDNSKNTLYLQMNSLRAEDTAVYYCARGSTDYAFDTRLDLWGQGTLVTVSSGPPPPPHHHHHH
notes: the sentence before it names 9C8 v3-1; purified by 6×His tag; also called 9C8 scFv v3-1; 9C8v3-1
B3: 14B5 chimeric mAb (antibody, V domains shown)
VH: QSVEESGGRLVTPGTPLTLTCAVSGFSLSDYTMIWVRQAPGEGLEWIGIISSSGNTYYATWVKGRFTISKTSTTVDLKMISPTTEDTATYFCARGSGAYISDYFNVWGPGTLVTVSS
VL: FELTQTPSSVEAAVEGTVTIKCQASQSIDSWLSWYQQKPGQPPKLLIYAASKLATGVPSRFSGSGSGTQFTLTIGDLECADAATYYCQSYYDVNAGYGFGGGTEVVVVR
B4: 9C8 chimeric mAb (antibody, V domains shown)
VH: QSVEESGGRLVTPGTPLTLTCTVSGIDLSSYDMSWVRQAPGKGLEWIGYIYTDSSTYYANWAKGRFTISKTSTTVDLKMTSLTTEDTATYFCAKGSTDYAFDTRLDLWGPGTLVTVS
VL: AYDMTQTPASVEVAMGGTVTIKCQASQSISNELSWYQQKPGQPPKLLIYRTSTLASGVSSRFKGSGSGTEYTLTISGVECADAATYYCQQGYNSNDVDNVFGGGTKVVVVR
notes: Rabbit/human chimeric IgG (human IgG1, kappa); HEK293; also called 9C8 clone
B5: 28D2 N-Aha (scFv)
scFv: MEDIQLTQSPSFLSASVGDRVTITCQASEDLFSSLAWYQQKPGKAPKLLIYSASTLASGVPSRFSGSGSGTDFTLTISSLQPEDFATYYCLGLYYYLTPDPIYGFGGGTKVEIKGGGGSGGGGSGGGGSGGGGSEVQLVESGGGLVQPGGSLRLSCTVSGLSLSKNAIAWVRQAPGKGLEWVGIIYAGGATTYASWAKGRFTISRDNSKNTLYLQLNSLRAEDTAVYYCAREYAGDSYYTGYTQLDLWGQGTLVTVSSGPPPPPHHHHHH
modifications: azidohomoalanine (Aha) in place of the single Met, at the N terminus
notes: also called E. coli 28D2 scFv with Aha at the N term
B6: 28D2-L Aha (scFv)
scFv: MADIQLTQSPSFLSASVGDRVTITCQASEDLFSSLAWYQQKPGKAPKLLIYSASTLASGVPSRFSGSGSGTDFTLTISSLQPEDFATYYCLGLYYYLTPDPIYGFGGGTKVEIKGGGGSGMGGSGGGGSGGGGSEVQLVESGGGLVQPGGSLRLSCTVSGLSLSKNAIAWVRQAPGKGLEWVGIIYAGGATTYASWAKGRFTISRDNSKNTLYLQLNSLRAEDTAVYYCAREYAGDSYYTGYTQLDLWGQGTLVTVSSGPPPPPHHHHHH
modifications: azidohomoalanine (Aha) in place of a single Met in the Gly/Ser linker between VL and VH
notes: also called E. coli 28D2 scFv with Aha in the Gly/Ser linker

Legend:
[1] = molecular target: T1, human IL-6 (human, UniProt P05231 30-212); test: cell-based or functional assay
[2] = molecular target: T1, human IL-6; test: cell-based or functional assay; remark: listed apart in the source
[3] = molecular target: T2, 3×FLAG-IL-6 (human); test: SPR, 3×FLAG-IL-6 captured by anti-FLAG M2 on protein G, scFv as analyte (1-100 nM)
T2 construct: it may hold the pre-pro-trypsin leader
T2 sequence (chain, as listed by the source limits assumed): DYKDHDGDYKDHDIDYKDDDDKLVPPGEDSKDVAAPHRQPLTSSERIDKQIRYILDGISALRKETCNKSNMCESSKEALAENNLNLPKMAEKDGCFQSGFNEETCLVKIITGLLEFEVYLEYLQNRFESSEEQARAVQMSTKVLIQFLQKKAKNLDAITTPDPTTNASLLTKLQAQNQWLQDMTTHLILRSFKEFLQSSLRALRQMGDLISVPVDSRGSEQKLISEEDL
Method: Equilibrium constants for scFvs were determined as previously described; however, the protocol was modified so that an epitope tagged IL-6 was captured on the chip surface and the dissociation of anti-IL-6 scFvs from IL-6 was monitored. Briefly, anti-FLAG® M2 antibody (200472, Agilent Technologies, Santa Clara, Calif.) was bound to Protein G, and then 3×FLAG-IL-6 was captured by the anti-FLAG antibody. The anti-IL-6 scFvs were assayed over a range of concentrations between 1 and 100 nM.
Anti IL-6 scFvs, humanized using the one step method, retained IL-6 neutralization activity when expressed in mammalian cells, as shown for 13A8 (FIG. 11A and FIG. 11B), 28D2 and 9C8 v3-1 (FIG. 11C).

[4] = molecular target: T3, human dimeric IL-23 (eBiosciences 34-8239) (human, UniProt P29460 23-328; Q9NPF7 20-189); test: cell-based or functional assay
T3 sequence (looked up) 1: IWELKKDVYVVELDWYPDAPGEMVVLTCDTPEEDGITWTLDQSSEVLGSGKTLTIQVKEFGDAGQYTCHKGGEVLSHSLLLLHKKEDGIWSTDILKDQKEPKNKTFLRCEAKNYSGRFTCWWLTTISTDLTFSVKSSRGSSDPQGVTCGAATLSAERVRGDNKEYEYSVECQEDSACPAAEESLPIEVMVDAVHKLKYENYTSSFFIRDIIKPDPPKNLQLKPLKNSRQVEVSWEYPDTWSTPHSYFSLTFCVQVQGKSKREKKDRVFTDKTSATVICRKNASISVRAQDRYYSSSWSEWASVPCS
T3 sequence (looked up) 2: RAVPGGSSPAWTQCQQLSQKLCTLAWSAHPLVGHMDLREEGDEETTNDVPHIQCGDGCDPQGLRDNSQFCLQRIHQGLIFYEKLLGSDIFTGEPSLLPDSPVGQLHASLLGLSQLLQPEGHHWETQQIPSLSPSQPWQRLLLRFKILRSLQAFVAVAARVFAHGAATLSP

[5] = molecular target: T1, human IL-6; test: SPR (SensiQ Pioneer), mAb captured on protein G, IL-6 as analyte (3×FLAG-IL-6 or IL-6 CYT-213, 1-100 nM), 25 C, 1:1 model
Method: Equilibrium constants for rabbit human chimeric mAbs were determined by binding the mAb to the protein G coated chip followed by binding of each analyte (IL-6 or IL-23) to its respective mAb. In order to minimize mass transfer effects, the surface densities of the mAbs for each analyte were adjusted so that as analyte binding approached saturation its corresponding RU fell between 200 and 300. […] For each binding and dissociation cycle the chip surface was regenerated with 15 uL of 20 mM NaOH (5671-02, Mallinckrodt Baker, Philliphsburg, N.J.). The assay temperature was maintained at 25° C. with an analyte flow rate of 50 μL/min and included a 2 minute association phase and 10-30 minute dissociation phase. The on/off rates (kₐ/kd) and dissociation constants (KD) were determined using the format described above along with pseudo-first-order 1:1 interaction model software (Qdat, ICx Nomadics, Stillwater, Okla.).

[6] = molecular target: T2, 3×FLAG-IL-6; test: SPR, 3×FLAG-IL-6 captured by anti-FLAG M2 on protein G, scFv as analyte (1-100 nM); remark: listed apart in the source

| Binder | EC50, inhibition of IL-6 induced B9 cell proliferation [2] [ng/mL] | Kd [6] [nM] | koff [6] [s⁻¹] | kon [6] [M⁻¹ s⁻¹] | other results |
| --- | --- | --- | --- | --- | --- |
| B1 | – | – | – | – | EC50, inhibition of IL-6 induced B9 cell proliferation [1]: 0.51 ng/mL |
| B2 | 0.319 | – | – | – | Kd [3]: 0.089 nM; koff [3]: 4.03e-05 s⁻¹; kon [3]: 447000 M⁻¹ s⁻¹ |
| B3 | – | – | – | – | EC50: concentration necessary to inhibit bioactivity of 50 pg/ml of IL-6 [4]: 0.767 ng/mL |
| B4 | 0.4 | – | – | – | Kd [5]: 0.042 nM; koff [5]: 3.17e-05 s⁻¹; kon [5]: 765000 M⁻¹ s⁻¹ |
| B5 | – | 0.062 | 8.99e-05 | 1.46e+06 | – |
| B6 | – | 0.053 | 6.88e-05 | 1.3e+06 | – |
